Assay results: PMC12442389
One block for each substance: values may come before it.

Tests used:
[1] = target: CW7_Lyz2 (amino acids 142 to 473, two cpl-7 motifs and the glucosaminidase domain of PlyCYU) (Streptococcus suis (prophage λSa2%2C)); assay: SEC-MALS; Superdex 200 Increase 5/150 GL; 20 mM sodium phosphate, pH 7.0, 150 mM NaCl; 10 µL injected at 10 mg/mL; 0.2 mL/min; self-association, oligomeric number from mass over subunit mass
[2] = target: CW7_Lyz2 (amino acids 142 to 473, two cpl-7 motifs and the glucosaminidase domain of PlyCYU) (Streptococcus suis (prophage λSa2%2C)); assay: SEC; SEC-UV; Superdex 200 Increase 10/300 GL; 50 mM phosphate buffer, pH 7.5, 150 mM NaCl; 0.1-0.4 mg/mL protein; 0.5 mL/min; mass from a calibration curve of standard proteins; PlyCYU214 also with 500 mM NaCl; self-association
[3] = target: His6-tagged PlyCYU endolysin (full-length) (Streptococcus suis (prophage λSa2%2C)); assay: SEC-MALS; Superdex 200 Increase 5/150 GL; 20 mM sodium phosphate, pH 7.0, 150 mM NaCl; 10 µL injected at 10 mg/mL; 0.2 mL/min; self-association, oligomeric number from mass over subunit mass
[4] = target: His6-tagged PlyCYU endolysin (full-length) (Streptococcus suis (prophage λSa2%2C)); assay: SEC; SEC-UV; Superdex 200 Increase 10/300 GL; 50 mM phosphate buffer, pH 7.5, 150 mM NaCl; 0.1-0.4 mg/mL protein; 0.5 mL/min; mass from a calibration curve of standard proteins; PlyCYU214 also with 500 mM NaCl; self-association
[5] = target: cyuLyz2 (amino acids 266 to 473, glucosaminidase domain of PlyCYU) (Streptococcus suis (prophage λSa2%2C)); assay: SEC-MALS; Superdex 200 Increase 5/150 GL; 20 mM sodium phosphate, pH 7.0, 150 mM NaCl; 10 µL injected at 10 mg/mL; 0.2 mL/min; self-association, oligomeric number from mass over subunit mass
[6] = target: cyuLyz2 (amino acids 266 to 473, glucosaminidase domain of PlyCYU) (Streptococcus suis (prophage λSa2%2C)); assay: SEC; SEC-UV; Superdex 200 Increase 10/300 GL; 50 mM phosphate buffer, pH 7.5, 150 mM NaCl; 0.1-0.4 mg/mL protein; 0.5 mL/min; mass from a calibration curve of standard proteins; PlyCYU214 also with 500 mM NaCl; self-association

stoichiometry N [1]: 4.4
stoichiometry N [2]: 11.8
Substance: CW7_Lyz2 (amino acids 142 to 473, two cpl-7 motifs and the glucosaminidase domain of PlyCYU) (domain or fragment)

stoichiometry N [3]: 5.2
stoichiometry N [4]: 6.8
Substance: His6-tagged PlyCYU endolysin (full-length) (enzyme)

stoichiometry N [5]: 3.9
stoichiometry N [6]: 6.9
Substance: cyuLyz2 (amino acids 266 to 473, glucosaminidase domain of PlyCYU) (domain or fragment)
